# Laboratory results as given in the nanobody polyreactivity screen of Harvey et al. (2022).
# Test: yeast display, Sf9 membrane polyspecificity reagent, FACS + sequencing; frameworks hold sequencing errors
# Outline: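 A nanobody's polyreactivity label depends on the gate it was sorted from. Yeast display cells were stained with 10% biotinylated, detergent-solubilized Sf9 membrane reagent for 1 hour at 4 °C, enriched on streptavidin microbeads and sorted by FACS. The low and high (top ~1%) gates were set on anti-HA fluorescence for expression and streptavidin fluorescence for reagent binding.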
row,Sequence,polyreactivity (PSR sort gate)
1,QVQLVESGGGLVQAGGSLRLSCAASGIIFTLYAMGWYRQAPGKERELVATISTGGGTYYADSVKGRFTISRDNAKNTVYLQMNSLKPEDTAVYYCAAKRYWNFRYDYWGQGTQVTVSS,high polyreactivity
2,QVQLVESGGGLVQAGGSLRLSCAASGSISYQNAMGWYRQAPGKERELVAAISGDGDSTYYADSVKGRFTISRDNAKNTVYLQMNSLKPEDTAVYYCAAEPNVYFSVFVLFPSDYWGQGTQVTVSS,low polyreactivity
3,QVQLVESGGGLVQAGGSLRLSCAASGRIIYIYAMGWYIQAPGKERELVAAITASSGSTNYADSVKGRFTISRDNAKNTVYLQMNSLKPEDTAVYYCAAAPSRTLLRQSKYYYWGQGTQVTVSS,low polyreactivity
4,QVHLVESGGGLVQAGGSLRLSCAASGSNFRSYAMGWYRQAPWKERELDAAISSSGGRTYYADSVKGRFTISRDNAKNTVYLQMNSVKPEDNAVYYCAAYRGGGYKYDYWGQGTQVTVSS,high polyreactivity
5,QVQLIESGGGLVQAGGSLRLSCAASGGTFRAYAMGWYRQAPGKEREFVAAITWSGGRTYYADSVKGRFTISRDNAKNTVYLQMNSLKPEDTEVYYCATDQGHYYHAEHDYWGQGTQVTVSS,low polyreactivity
6,QVQLVESGGGLVQAGGSLRLSCAASGINFGYYAMGWYRQAPGKERELVAAISRRGGSTYYADSVKGRFTISRDNAKNTVYLQMNSLKPEDTAVYYCYKRRAAGGFPYVYWGQGTQVTVSS,high polyreactivity
7,QVQLVESGGGLVQAGGSLRLSCAASGFIFPIYAMGWYRQEHGKERELVAGISGSGTSTYYADSVKGRFTISLDYAKNTVYLQMNSLKPVDNAVYYCNAKYPWGNYKSVSYDYWGQGTQVTVSS,high polyreactivity
8,QVQHVESGGGLVQAGGSLRLSSAASGRTFYYNAMGWYRQAPGKERELVASITITDSTNYADSVKGRFTISRDNAKNTVYLQMNSLKPEDTAVYYCAKRGWGTSFYLSDYWGQGTQVTVSS,low polyreactivity
9,QVQLVESGGGLVQAGGSLRLSCAASGYTFGKYAMGWYRQAPGKERELVAGISSRGGSTYYADSVKGRFTISRDNAKNTVYLQMNSLKPEDTAVYYCAAVAYTGGPRKLGFNYWGQGTQVSVSS,high polyreactivity
10,QDQLVESGGGLLQAGGSLRLSCAASGIIFYPYAMGWYRQAPGKERELVAAITTRGRTYYADSVKGRFTISRDNAKNTVYLQLNSLKPEDTAVYYCNARRYFSRDSSGYNYWGQGTQVTVSS,high polyreactivity
11,QVQLLESGGGLVQAGGSLRLSCAASGSTFYYYAMGWYRQAPGKERELVAAITSGGRTYYADSQKGRFTNSRDNAKNTVYLQMNSLKPEDTAVYYSNKRWTIWGYDYWAQGTQVTVSS,high polyreactivity
12,QVHLVESGGGLVQAGGSLRLSCAASGSIFFVYAMGWYRQAPGKERELVAAISNDGSTNYADSVKGRFTISRDNAKNTVYLQMNSLKPEDTAVYYCAADPSLRQYAYFDYDYWGQGTQVTVSS,low polyreactivity
13,QVQLVESGVGLVQAGGSLRLSCAASGISFVGNAMGWYRQAPGKERELVASINSGGSTYYADSVKGRFTISRDNAKYTVYLQMNSLKPADTAVYYCAVEEDRYYYDDYDYWGQGTQVTVSS,low polyreactivity
14,QVQLVESGGGLVQAGGSLRLSCAASGIIFYPYAMGWYRQEPGKERYLVASISSGGDTNYADSVKGRFTISRDNAKNTVYLQMNSLKPEDTAVYYCAARVRVQYWWEYYYWGQGTQVTVSS,high polyreactivity
15,QVQLVESGGGLVQAGGSLRLSCASSGITLAGNAMGWYRQAPGKERELVAAISASGGRTSYADSVKGRFSISRDNAKNTVYLQKNSLKPEDTAVYYCNTRRYPTRPSYDYWGQGTQVTVSS,high polyreactivity
16,QVKLVESGGGLVHAGGSLRLSCAASGFIFYYYAMGWYRQAPGKERELVAAITSSGGSTYYADSVKGRFTISRDNAKNTVYLQMNSLKPEDTAVYYCNARYVSASRNRGTSRYDYWGQGTQVTVSS,high polyreactivity
17,QVQLVESGGGLVQAGGSLRLCCAASGFTFSYYAMGGYRQAPGKERELVAAISRSGGRTYYADSVKGRFTISRDHAKNTVYVQMNSLKPEDTAVYSCAGVYFGSIFVLEYDYWGQGTQVTVSS,high polyreactivity
18,QVQLVESGGGLVQAGGSLRLSCAASGITFYDYAMGWYRQAPGKERELVAAISGGGITYYADSVKGRFTISRDNAKNTVYLQMNSLKPEDTAVYYCAAERYSPSVGYDYWGQGTQVTVSS,low polyreactivity
19,QVQLVESGGGLVQAGGSLRLSCAASGRTFTGYAMGWYRQAPGKERELVAAISASGGSTYYADSVKGRFTISRDIAKNTVYFQMNSLKPEDTAVYYCAAETWYSVLWEEGYDYWGQGTQVTVSS,low polyreactivity
20,QVQLVESGGGLVQAGGSLRLSCAASGRTFFGYTMGWYRHAPGKERELVAVISKRGGRTYYADSVKGRFTISRDNAKNTVYLQMNSLKPEDTAVYYCNRVKDSNVSQAMEYWGQGTQVTVSS,high polyreactivity
21,QVQLVESGGGLVQAGGSLRLSCAASGFIFSKNAMGWYRQAPGKERELVARITRRVGSTYYADSVKGRFTISRDNAKNTVYIQMNSLKPEDTAVYYCAVLPRVKDGTGGDYWGQGTQVTVSS,high polyreactivity
22,QVQLVESGGGLVQAGGSLRLSCAASGITFPDYAMGWYRQAPGKERELVATISSSGGNTYYADSVKGRFTISRDNAKNTVYLQMNSLKPEDTAVYYCATVSYYWGYDYWGQGTQVTVSS,low polyreactivity

row,Sequence,polyreactivity (PSR sort gate)
1,QVQLVESGGGLVQAGGSLRLSCAASGSTFGENDRGWSRQEPGKERELVAAITWSGGSTYYADSVKGRFTISRDNAKNTVYLQMNSLKPEDTAVYYCAADRYWIVLYDYWGQGTQVTVSS,low polyreactivity
2,QVQLVESGGGLVQAGGSLRLSCAASGRTFVSNTMGWYRQAPGKERELVAAINYSVASTNYADSVKGRFTISRDNAKNTVYLQMNSLKPEDTAVYYCNRASAGWGQGTQVTVSS,low polyreactivity
3,QVQLVESGGGLVQAGGSHRLSCAASGSIFTWNGMGWYRQAPGKERELVAAISNGASTNYADSVKGRFTISRDNAKNTVYLQMNSLKPEDTEVDYCAAKSTGRYDYWGQGTQVTVSS,low polyreactivity
4,QVQLVESGGGLVQAGGSLRLSCAASGITFPSYTMGWYRQAPGKERELVATIRNGGSTYYADSVKGRFTISRDNAKNTVYLQMNSLKPEDPAVYYCAAVPLWDYKFFYYLLYDYWGQGTQVTVSS,low polyreactivity
5,QVQLVESGGGLVQAGGSLRLSCAASGFIFYLYARGWYRQAPGKERELVAAITRRGGSTYYADSVKGRFTISRDIAKNTFYLQMNSLKPEDTAVYYCAADHYGFFSAGDFDYWGQGTQVTVSS,high polyreactivity
6,QVQLVESGGGLVQAGGSLRLSCAASGITFPANARGWYRPAPGKERELVAAISSSGDSTYYADSVKGRFTISRDNAKNTVYFQMNILKPEDTAVYYCAAKDYVWGQGTQVTVSS,low polyreactivity
7,QVQLVESGGGLVQAGGSLRLSCAASGNIFLFYVMAWYRQAPGKERELVAAITLSGTNTYYADSVKGRFTISRDNAKNTVYLQMNSLKPDDTAVYYCAAEPKTYDWYPWGQVIENYWGQGTQVTVSS,low polyreactivity
8,QVQLVEAGGGLVQAGGSLRLSCAASGGIFLPYAMGWYRQAPGKERELVAGITSVGSTYADSVKGRFTISRDNAKNTVYLQMNSLKPEDTAVYYCNADIYFVEYDYWGQGTQVTVSS,low polyreactivity
9,QVQLVESGGGLVQAGGSLRLSCAASGRTFRVYAMGWYRQAPGKERELVAAINGGGSTNYADSVKGRFTISRDNAKNTVYVQMNSLKPEDTAVYYCNATGRRSKRIYDYWGQGTQVTVSS,high polyreactivity
10,QVQLVESGGGLVQAGGSLRLSCAASGRTFRRNAMGWYRQAPGKERELVAAISSRGGSTYYADSVKGRFTISRDNAKNSVYLQMNSLKPEDTAVYYCNKGTPPTGTLGDYEYWGQGTQVTVSS,high polyreactivity
11,QVQLEESGGGLVQAGGSLRLSCAGSGFISNGYALGWYRQAPGKEREFVASISSTGGRTYYADSVKGRFTISRDNAKNTVYLLMNSLKPEDTSVYYCAKDPQPRYWVDYWGQGTQVTVSS,low polyreactivity
12,QVQLVESGGGLVQAGGSLRLSCAASGFTLQSNAMGWFRQATGKERELVAAISFRGGSTYYADSVKGRFTISRDNAKNTVYLQMNSLKPEDTAVYYCAADFYFHSAYNYGYWGQGTQVTVSS,low polyreactivity
13,QVQLVESGGGLVQAGGSLRLSCAASGRIFNAYAMGWYRQAPGKERELVAAISRSGGRTYYADSVKGRFTISRDNAKNNVYLQMNILKPEDTAVYYCAKDFFEHSPVSHTYSSSKYDYWGQGTQVTVSS,low polyreactivity
14,QVQLVESGGGLVQAGGSLRLSCAASGSTFEGNVMGWDRQATGKERELVATITGSGGRTYADSVKGRFTISRDNAKNTVYLQMNSLKPEDTAVYYCYAVSTASDEYDYWGQGTQVTVSS,low polyreactivity
15,QVQLVESGGGLVQAGGSLRLSCAASGSTFRFYAMGWYRQAPGKERELVAVISSAGSTNYADSVKGRFTISRDNAKNTVYLQMNSLKTEDTAVYYCAAYRRYSIYNYWGQGTQVTVSS,high polyreactivity
16,QVQLVESGGGLVQAGGSLRLSCAASGRTFGKYAMGWYRQAPGKERELVATISLSGGSTYYADSVKGRFTISRDNAKNTVYLQMNSLKPEDTAVYYCAARVYTYYYDLHKRYYWGQGTQVTVSS,high polyreactivity
17,QVQLVESGGGLVQAGGSLRLSCAASGSIFRSYAMGWYRQAPGKERELVASISRRGGSTYYADSVKGRFTISRDNAKNTVYLQMNSLKLEDTAVYYCAAVRYNSRVSTTPSEMYYWGQGTQVTVSS,low polyreactivity
18,QFQLVESGGGLVQAGGSLRLSCAASGRIFEDSMGWYRQAPGKERELVAAIRWSGGGTYYADSVKGRFTISRDNAKNTVYLQMNSLKPEDTAVYYCATPGTGSVELYGYWGQGTQVTVSS,low polyreactivity
19,QVQLVESGGGLVQAGGSLRLTCAASGSIFTYYVMGWYRQAPGKERELVATITGSSGSTYYADSVKGRFTISRDNAKNTVFLQMNSLKPEDTAVYYCATYGTLVYYYYPDMEYWGQGTQVTVSS,low polyreactivity
20,QVQLVESGGGLVQAGGSLRLSCSASGFTFRTYAMGWYRQAPGKETELVAAISRDGSSTYYADSVKGRFTISRDNAKNTVYLQLKSLKPEDTAVYYCAARIIRFYTSADKLVTSRYYYWGQGTQVTVSS,high polyreactivity
21,QVQLVESGGGLVQAGGSLRLSCAASGSIFKGYAMGWYRQAPGKERELVAAITIDGSTYYADSVKGRFTISRDNAKNTVYLQMNSLKPEDTAVYYCAAVYLWYGSWPLHFAAYDYWGQGTQVTVSS,low polyreactivity
